Experimental data from patent US20180215829A1 (CRESCENDO BIOLOGICS, published 2018).

Tests used:
[1] = target: T1, recombinant human IL-17RA Fc fusion protein (R&D Systems 177-IR-100) (human, UniProt Q96F46 33-320); experiment: BIAcore T200 single-cycle kinetics, IL-17RA-Fc captured on protein G chip, VH as analyte
T1 construct: Bought protein; not shown: Fc domain of human IgG1
T1 sequence: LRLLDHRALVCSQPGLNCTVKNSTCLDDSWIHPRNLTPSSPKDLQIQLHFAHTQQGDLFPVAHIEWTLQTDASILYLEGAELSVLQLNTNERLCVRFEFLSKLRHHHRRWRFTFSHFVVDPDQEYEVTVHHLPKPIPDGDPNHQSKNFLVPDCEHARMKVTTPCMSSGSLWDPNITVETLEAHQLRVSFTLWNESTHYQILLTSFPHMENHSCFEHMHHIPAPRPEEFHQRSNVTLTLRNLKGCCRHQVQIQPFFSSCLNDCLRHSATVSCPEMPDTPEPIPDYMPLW
Protocol: Binding kinetics of anti-IL-17RA VH antibodies were measured on a BIAcore® T200 instrument. For IL-17RA, first a protein G chip was prepared by diluting protein G to 20 ug/ml in acetate buffer, pH 4 (BIAcore®, cat# BR-100-49) and then coupled 1200 RU to a CM5 Series S chip using amine coupling chemistry. This surface was then used to capture IL-17RA Fc fusion protein from solution: IL-17RA at 10 ug/ml in HBS injected for 10 seconds at 30 ul/min flow rate would capture approximately 100-150 RU of IL-17RA onto the protein G surface.
Binding kinetics of anti-IL-17RA VH antibodies were determined by single-cycle kinetics. VH antibodies were prepared in dilution series (typically 1:3 dilution series starting with 100 nM VH at the highest concentration), and then injected over the antigen coated surfaces and also a blank surface, starting with the lowest concentration of VH and then working progressively up to the highest concentration. VH binding kinetics were then determined from the (blank subtracted) sensorgram traces using 1:1 binding models and BIAevaluation software.

[2] = target: T1, recombinant human IL-17RA Fc fusion …; experiment: receptor/ligand biochemical inhibition ELISA: VH competes with 1 nM IL-17A for coated IL-17RA-Fc
Protocol: VH, both purified and crude periplasmic extracts, were also tested for their ability to inhibit the interaction of IL-17A with recombinant IL-17RA-Fc. […] Following washing of excess coating antigen, as described above, the wells of the plate were incubated with 3% Marvel/PBS to block non-specific protein interactions. VH preparations, crude periplasmic extracts or purified VH, or suitable controls, were prepared with 1 nM recombinant IL-17A (Peprotech, cat# AF-200-17) in 3% skimmed milk powder/PBS solution in polypropylene plates or tubes. The mixture was then transferred to the assay plate and incubated for 1 hour at room temperature. Excess protein was removed by washing and bound IL-17A was detected by incubation with biotinylated anti-IL-17A Mab (R & D Systems, cat BAF317) followed by the addition of neutravidin-HRP (Pierce, cat#31030) and TMB substrate (Sigma, cat# T0440). The TMB reaction was stopped by addition of 0.5M H₂SO₄ and absorbances were measured at 450 nm in a plate reader.

[3] = target: T1, recombinant human IL-17RA Fc fusion …; experiment: affinity against parent clone 2.1; method not given
[4] = target: T2, human IL-17RA on HT1080 cells (human, UniProt Q96F46 33-866); experiment: cell-based or functional assay
T2 sequence: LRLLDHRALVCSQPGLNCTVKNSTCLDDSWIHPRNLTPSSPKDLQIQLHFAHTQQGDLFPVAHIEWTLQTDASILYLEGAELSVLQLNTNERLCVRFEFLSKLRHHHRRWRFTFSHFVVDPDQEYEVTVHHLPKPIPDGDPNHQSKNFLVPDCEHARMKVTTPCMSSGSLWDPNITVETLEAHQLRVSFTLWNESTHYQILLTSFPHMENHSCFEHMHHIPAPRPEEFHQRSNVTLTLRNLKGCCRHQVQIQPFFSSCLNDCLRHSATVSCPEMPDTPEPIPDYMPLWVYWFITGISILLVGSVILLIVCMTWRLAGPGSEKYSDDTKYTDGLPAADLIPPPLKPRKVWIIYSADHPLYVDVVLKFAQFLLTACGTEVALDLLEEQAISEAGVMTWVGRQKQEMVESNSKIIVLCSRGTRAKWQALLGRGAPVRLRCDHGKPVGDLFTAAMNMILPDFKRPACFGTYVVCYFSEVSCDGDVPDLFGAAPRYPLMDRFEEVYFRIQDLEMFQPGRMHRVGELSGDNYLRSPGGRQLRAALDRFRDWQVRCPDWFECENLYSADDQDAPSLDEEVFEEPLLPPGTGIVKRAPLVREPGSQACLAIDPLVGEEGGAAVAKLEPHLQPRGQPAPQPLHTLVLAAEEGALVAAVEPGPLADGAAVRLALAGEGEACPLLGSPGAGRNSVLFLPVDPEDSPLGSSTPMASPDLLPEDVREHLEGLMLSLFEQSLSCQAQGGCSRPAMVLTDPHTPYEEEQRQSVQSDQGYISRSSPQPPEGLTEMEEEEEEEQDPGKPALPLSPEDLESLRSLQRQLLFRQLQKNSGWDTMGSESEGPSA

[5] = target: T2, human IL-17RA on HT1080 cells; experiment: cell-based or functional assay; remark: listed apart in the source

- Kd [1]: 1.4 nM
- koff [1]: 0.000799 s⁻¹
- kon [1]: 579000 M⁻¹ s⁻¹
- IC50 [2]: 1.4 nM
- fold improvement in affinity against clone 2.1 [3]: 10 fold
- Cell assay IC50 [4]: 61 nM
- IC50 (nM), cell-based assay [5]: 165 nM
B1: VH clone 2.2 (VHH)
VHH: QVQLVQSGAEVKKPGASVKVSCKASGYPFTSYDINWVRQATGRSLEWMGWMNPTNGNTVYAQKFQDRVTMTRNTSISTAYMELSSLRSEDTAVYFCARGRRDDWKNNYWGQGTLVTVSS
notes: Human VH single domain antibody, no light chain; Optimised variant of clone 2.1; also called VH 2.2
